Measurements published in patent US20250171562A1 (ALK ABELL, published 2025).

Target: T1, recombinant human IgE (human, UniProt P01854-1 1-428)
T1 construct: made in-house (ALK); preloaded on immobilised FcεRIα in the displacement ELISA
Test: IgE-FcεRIα displacement ELISA
Method in brief: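 sdAbs at pM–μM were incubated 1 h on preformed complexes of 13 ng/ml recombinant human IgE with avi-tag-biotinylated human FcεRIα captured on streptavidin.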

T1 sequence (P01854 other isoform, or with tags, fused parts or gaps): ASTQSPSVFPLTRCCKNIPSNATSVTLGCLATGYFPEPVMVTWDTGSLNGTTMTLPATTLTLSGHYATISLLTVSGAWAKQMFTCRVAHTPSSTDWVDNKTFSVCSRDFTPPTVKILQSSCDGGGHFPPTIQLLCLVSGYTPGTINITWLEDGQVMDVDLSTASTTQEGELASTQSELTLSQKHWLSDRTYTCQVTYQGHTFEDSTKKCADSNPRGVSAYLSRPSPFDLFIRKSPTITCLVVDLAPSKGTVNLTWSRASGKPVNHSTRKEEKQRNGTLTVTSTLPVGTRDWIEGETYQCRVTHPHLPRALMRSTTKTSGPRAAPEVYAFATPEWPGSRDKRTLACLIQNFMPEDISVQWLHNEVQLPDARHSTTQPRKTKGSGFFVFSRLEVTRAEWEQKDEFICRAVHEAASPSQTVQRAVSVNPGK

Row | EC50 | Max effect | Binder
1 | 130 nM | 85% | CIgG4E4A1(G4S)1 (Fc fusion) chain 1: GPPCPPCPAPEFLGGPSVFLFPPKPKDTLMISRTPEVTCVVVDVSQEDPEVQFNWYVDGVEVHNAKTKPREEQFNSTYRVVSVLTVLHQDWLNGKEYKCKVSNKGLPSSIEKTISKAKGQPREPQVYTLPPCQEEMTKNQVSLWCLVKGFYPSDIAVEWESNGQPENNYKTTPPVLDSDGSFFLYSRLTVDKSRWQEGNVFSCSVMHEALHNHYTQKSLSLSLGKGGGGSDVQLQESGGGLVQPGGSLRLSCAASGFRFSNYAMRWYRQAPGKEREFVARISSTGFITRYTASVRDRFTISRDNDKNMMYLQLNKLTPQDTAHYYCNAESTDYWGQGTQVTVS chain 2: GPPCPPCPAPEFLGGPSVFLFPPKPKDTLMISRTPEVTCVVVDVSQEDPEVQFNWYVDGVEVHNAKTKPREEQFNSTYRVVSVLTVLHQDWLNGKEYKCKVSNKGLPSSIEKTISKAKGQPREPQVCTLPPSQEEMTKNQVSLSCAVKGFYPSDIAVEWESNGQPENNYKTTPPVLDSDGSFFLVSRLTVDKSRWQEGNVFSCSVMHEALHNHYTQKSLSLSLGKGGGGSEVQLLESGGGLVQPGGSLRLSCAASGFTFGNYDMAWVRQAPGKRPEWVSSIDTGGDITHYADSVKGRFTISRDNAKNTLYLQMNSLRPEDTAVYWCATDEEYALGPNEFDYYGQGTLVTVSS
2 | 48 nM | 90% | CIgG4E4A1(G4S)2 (Fc fusion) chain 1: GPPCPPCPAPEFLGGPSVFLFPPKPKDTLMISRTPEVTCVVVDVSQEDPEVQFNWYVDGVEVHNAKTKPREEQFNSTYRVVSVLTVLHQDWLNGKEYKCKVSNKGLPSSIEKTISKAKGQPREPQVYTLPPCQEEMTKNQVSLWCLVKGFYPSDIAVEWESNGQPENNYKTTPPVLDSDGSFFLYSRLTVDKSRWQEGNVFSCSVMHEALHNHYTQKSLSLSLGKGGGGSGGGGSDVQLQESGGGLVQPGGSLRLSCAASGFRFSNYAMRWYRQAPGKEREFVARISSTGFITRYTASVRDRFTISRDNDKNMMYLQLNKLTPQDTAHYYCNAESTDYWGQGTQVTVS chain 2: GPPCPPCPAPEFLGGPSVFLFPPKPKDTLMISRTPEVTCVVVDVSQEDPEVQFNWYVDGVEVHNAKTKPREEQFNSTYRVVSVLTVLHQDWLNGKEYKCKVSNKGLPSSIEKTISKAKGQPREPQVCTLPPSQEEMTKNQVSLSCAVKGFYPSDIAVEWESNGQPENNYKTTPPVLDSDGSFFLVSRLTVDKSRWQEGNVFSCSVMHEALHNHYTQKSLSLSLGKGGGGSGGGGSEVQLLESGGGLVQPGGSLRLSCAASGFTFGNYDMAWVRQAPGKRPEWVSSIDTGGDITHYADSVKGRFTISRDNAKNTLYLQMNSLRPEDTAVYWCATDEEYALGPNEFDYYGQGTLVTVSS
3 | – | 40% | CIgG4E4A1(RS) (Fc fusion) chain 1: GPPCPPCPAPEFLGGPSVFLFPPKPKDTLMISRTPEVTCVVVDVSQEDPEVQFNWYVDGVEVHNAKTKPREEQFNSTYRVVSVLTVLHQDWLNGKEYKCKVSNKGLPSSIEKTISKAKGQPREPQVYTLPPCQEEMTKNQVSLWCLVKGFYPSDIAVEWESNGQPENNYKTTPPVLDSDGSFFLYSRLTVDKSRWQEGNVFSCSVMHEALHNHYTQKSLSLSLGKRSDVQLQESGGGLVQPGGSLRLSCAASGFRFSNYAMRWYRQAPGKEREFVARISSTGFITRYTASVRDRFTISRDNDKNMMYLQLNKLTPQDTAHYYCNAESTDYWGQGTQVTVS chain 2: GPPCPPCPAPEFLGGPSVFLFPPKPKDTLMISRTPEVTCVVVDVSQEDPEVQFNWYVDGVEVHNAKTKPREEQFNSTYRVVSVLTVLHQDWLNGKEYKCKVSNKGLPSSIEKTISKAKGQPREPQVCTLPPSQEEMTKNQVSLSCAVKGFYPSDIAVEWESNGQPENNYKTTPPVLDSDGSFFLVSRLTVDKSRWQEGNVFSCSVMHEALHNHYTQKSLSLSLGKRSEVQLLESGGGLVQPGGSLRLSCAASGFTFGNYDMAWVRQAPGKRPEWVSSIDTGGDITHYADSVKGRFTISRDNAKNTLYLQMNSLRPEDTAVYWCATDEEYALGPNEFDYYGQGTLVTVSS
